Measurements from article PMC7296103, “Live Cell Imaging Demonstrates Multiple Routes Toward a STAT1 Gain-of-Function Phenotype” (Frontiers in Immunology, 2020).
Positions count from the first letter of the chain named. Names may count otherwise. Like-named read-outs stand apart in the source and are kept apart here. Each block holds one binder with its values, some of them ahead of it.

How the values were obtained:
[1] = molecular target: T1, STAT1-GFP wild type, P42224; experiment: raster image correlation spectroscopy (RICS), molecular brightness; living U3A cells after IFNγ (1 U/μl, 1 h), 37°C; cytoplasm; brightness as fold of cytoplasmic STAT1 WT; details: remark: other sources report otherwise
T1 chain: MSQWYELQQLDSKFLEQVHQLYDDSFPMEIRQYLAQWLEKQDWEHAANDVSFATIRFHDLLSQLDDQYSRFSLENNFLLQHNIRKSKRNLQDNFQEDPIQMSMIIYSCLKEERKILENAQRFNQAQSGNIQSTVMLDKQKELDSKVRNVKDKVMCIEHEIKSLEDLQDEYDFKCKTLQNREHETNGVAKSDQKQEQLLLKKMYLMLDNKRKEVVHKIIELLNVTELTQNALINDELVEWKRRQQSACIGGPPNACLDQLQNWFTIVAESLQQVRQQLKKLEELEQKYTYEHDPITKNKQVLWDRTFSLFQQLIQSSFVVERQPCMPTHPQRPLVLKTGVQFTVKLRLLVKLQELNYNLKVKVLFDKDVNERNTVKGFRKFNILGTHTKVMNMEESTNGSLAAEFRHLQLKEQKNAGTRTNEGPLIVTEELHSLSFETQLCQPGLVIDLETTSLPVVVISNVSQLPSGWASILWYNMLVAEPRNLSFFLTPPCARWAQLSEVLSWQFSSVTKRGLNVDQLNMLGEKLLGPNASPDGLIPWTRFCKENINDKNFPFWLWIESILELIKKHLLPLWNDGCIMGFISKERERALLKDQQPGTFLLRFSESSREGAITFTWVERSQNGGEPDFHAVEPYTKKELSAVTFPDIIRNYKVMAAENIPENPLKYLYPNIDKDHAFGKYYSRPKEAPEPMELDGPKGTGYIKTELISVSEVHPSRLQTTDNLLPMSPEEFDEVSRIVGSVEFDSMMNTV

[2] = molecular target: T1, STAT1-GFP wild type, P42224; experiment: raster image correlation spectroscopy (RICS), molecular brightness; living U3A cells, unstimulated, 37°C; cytoplasm and nucleus; brightness of STAT1-GFP compared with monomeric GFP; details: remark: other sources report otherwise
[3] = molecular target: T1, STAT1-GFP wild type, P42224; experiment: raster image correlation spectroscopy (RICS), molecular brightness; living U3A cells after IFNγ (1 U/μl, 1 h), 37°C; nucleus; brightness as fold of cytoplasmic STAT1 WT; dimers to tetramers; details: remark: other sources report otherwise
[4] = molecular target: the molecule itself; experiment: as above
[5] = molecular target: the molecule itself; experiment: as above; remark: listed apart in the source
[6] = molecular target: the molecule itself; experiment: raster image correlation spectroscopy (RICS), molecular brightness; living U3A cells after IFNγ (1 U/μl, 1 h), 37°C; cytoplasm; brightness as fold of cytoplasmic STAT1 WT

- relative brightness (fold of cytoplasmic STAT1 WT) [1]: 1 A.U.
- stoichiometry N [2]: 2
- relative brightness (fold of cytoplasmic STAT1 WT) [3]: 1.32 A.U.
- stoichiometry N [3]: 4
B1: STAT1-GFP wild type, P42224 1-750 (natural protein)
chain: T1 chain

B2: STAT1-GFP E411A (natural protein, UniProt P42224 1-750, looked up)
chain: T1 chain with E411A
notes: Artificial mutation, not reported in patients; also called STAT1E411A-eGFP; source: measured in living cells; not shown: eGFP, C-terminal, kept
- stoichiometry N [4]: 2

B3: STAT1-GFP T419R (natural protein, UniProt P42224 1-750, looked up)
chain: T1 chain with T419R
notes: Mutation reported in patients; also called STAT1T419R-eGFP; source: measured in living cells; not shown: eGFP, C-terminal, kept
- stoichiometry N [5]: 2

B4: STAT1-GFP Y701A (natural protein, UniProt P42224 1-750, looked up)
chain: T1 chain with Y701A
notes: Non-clinical control; also called STAT1Y701A-eGFP; source: measured in living cells; not shown: eGFP, C-terminal, kept
- stoichiometry N [4]: 2

B5: STAT1-GFP R274W (natural protein, UniProt P42224 1-750, looked up)
chain: T1 chain with R274W
notes: STAT1 with the patient gain-of-function mutation R274W (coiled-coil domain); Mutation reported in patients; also called STAT1R274W-eGFP; source: measured in living cells; not shown: eGFP, C-terminal, kept
- increase of nuclear brightness compared to cytoplasmic STAT1 WT [4]: 17%
- stoichiometry N [4]: 4

B6: STAT1-GFP N574I (natural protein, UniProt P42224 1-750, looked up)
chain: T1 chain with N574I
notes: STAT1 with the patient gain-of-function mutation N574I (linker domain); Mutation reported in patients; also called STAT1N574I-eGFP; N571I (as printed in some places); source: measured in living cells; not shown: eGFP, C-terminal, kept
- relative brightness (fold of cytoplasmic STAT1 WT) [6]: 0.74 A.U.
- increase of nuclear brightness compared to cytoplasmic STAT1 WT [4]: 7%
- stoichiometry N [4]: 4

B7: STAT1-GFP R321S (natural protein, UniProt P42224 1-750, looked up)
chain: T1 chain with R321S
notes: Mutation reported in patients; also called STAT1R321S-eGFP; source: measured in living cells; not shown: eGFP, C-terminal, kept
- relative brightness (fold of cytoplasmic STAT1 WT) [6]: 0.69 A.U.
- increase of nuclear brightness compared to cytoplasmic STAT1 WT [4]: 11%
- stoichiometry N [4]: 4
